Measured values taken from patent publication US20230250178A1.

What was measured:
[1] = target: FcRn of the FcRn column (Roche, Order No. 8128057001); experiment: FcRn affinity chromatography, pH gradient
[2] = target: cynomolgus FcRn (cynomolgus) (UniProt Q8SPV9); experiment: SPR pH 6.0, FcRn immobilised
human FcRn (human) = human FcRn (human) (UniProt P55899); experiment: SPR pH 6.0, FcRn immobilised
mouse FcRn (mouse) = mouse FcRn (mouse) (UniProt Q61559); experiment: SPR pH 6.0, FcRn immobilised
Chain of mouse FcRn (mouse) (Q61559 22-297 limits assumed, form in doubt): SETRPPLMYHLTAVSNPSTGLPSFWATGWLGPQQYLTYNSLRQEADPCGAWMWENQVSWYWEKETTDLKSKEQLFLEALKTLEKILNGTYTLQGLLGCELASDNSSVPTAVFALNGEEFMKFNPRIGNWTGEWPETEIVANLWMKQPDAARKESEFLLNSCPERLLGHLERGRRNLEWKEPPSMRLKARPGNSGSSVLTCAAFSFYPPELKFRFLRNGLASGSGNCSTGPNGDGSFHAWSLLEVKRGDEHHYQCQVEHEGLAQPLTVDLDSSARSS

human CCR8 (human) [3] = target: human CCR8 (human) (UniProt P51685); experiment: cell-based or functional assay
human CCR8 (human) [4] = target: human CCR8 (human) (UniProt P51685); experiment: FACS, BODIPY-labelled antibody, HuT78
human CCR8 (human) [5] = target: human CCR8 (human) (UniProt P51685); experiment: FACS, CHO-hCCR8
[6] = target: cynomolgus CCR8 (cynomolgus); experiment: FACS, CHO-cynoCCR8
Chain of cynomolgus CCR8 (cynomolgus) (O97665 other isoform, or with tags, fused parts or gaps): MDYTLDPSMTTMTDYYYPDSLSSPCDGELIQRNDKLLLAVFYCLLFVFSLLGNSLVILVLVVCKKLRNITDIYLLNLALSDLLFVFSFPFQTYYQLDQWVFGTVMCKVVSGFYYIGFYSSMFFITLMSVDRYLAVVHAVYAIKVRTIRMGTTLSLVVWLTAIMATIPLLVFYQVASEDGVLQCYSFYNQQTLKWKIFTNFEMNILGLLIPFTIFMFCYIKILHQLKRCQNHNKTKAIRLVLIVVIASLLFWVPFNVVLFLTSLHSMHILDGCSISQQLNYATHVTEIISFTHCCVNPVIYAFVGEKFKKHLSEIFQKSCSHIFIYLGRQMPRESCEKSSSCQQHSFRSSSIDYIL

murine CCR8 (mouse) = murine CCR8 (mouse) (UniProt P56484); experiment: FACS, BODIPY-labelled antibody, BW5147.3
Chain of murine CCR8 (mouse) (P56484 whole entry): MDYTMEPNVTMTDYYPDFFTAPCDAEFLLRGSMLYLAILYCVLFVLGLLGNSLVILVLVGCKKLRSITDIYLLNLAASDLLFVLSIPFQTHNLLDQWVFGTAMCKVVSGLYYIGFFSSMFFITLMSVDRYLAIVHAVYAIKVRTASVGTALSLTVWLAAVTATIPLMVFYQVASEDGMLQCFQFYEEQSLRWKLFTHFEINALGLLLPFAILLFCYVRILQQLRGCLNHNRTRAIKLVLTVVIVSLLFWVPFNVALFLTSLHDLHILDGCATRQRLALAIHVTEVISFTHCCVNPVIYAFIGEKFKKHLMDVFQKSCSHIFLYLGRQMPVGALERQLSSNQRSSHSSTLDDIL

Chain of Ustekinumab (antibody) (HC): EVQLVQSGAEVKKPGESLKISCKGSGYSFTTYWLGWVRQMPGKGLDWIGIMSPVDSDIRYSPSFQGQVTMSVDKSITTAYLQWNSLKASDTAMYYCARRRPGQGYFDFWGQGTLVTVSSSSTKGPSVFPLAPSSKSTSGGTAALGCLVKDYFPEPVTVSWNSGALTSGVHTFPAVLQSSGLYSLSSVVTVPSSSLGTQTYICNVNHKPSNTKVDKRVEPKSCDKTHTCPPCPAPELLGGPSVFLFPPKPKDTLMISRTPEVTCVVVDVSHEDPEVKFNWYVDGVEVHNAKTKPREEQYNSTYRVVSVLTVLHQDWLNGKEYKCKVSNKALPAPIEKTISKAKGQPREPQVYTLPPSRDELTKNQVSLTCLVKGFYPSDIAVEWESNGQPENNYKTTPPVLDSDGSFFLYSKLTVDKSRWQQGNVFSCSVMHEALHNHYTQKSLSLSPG
Chain of Ustekinumab (antibody) (LC): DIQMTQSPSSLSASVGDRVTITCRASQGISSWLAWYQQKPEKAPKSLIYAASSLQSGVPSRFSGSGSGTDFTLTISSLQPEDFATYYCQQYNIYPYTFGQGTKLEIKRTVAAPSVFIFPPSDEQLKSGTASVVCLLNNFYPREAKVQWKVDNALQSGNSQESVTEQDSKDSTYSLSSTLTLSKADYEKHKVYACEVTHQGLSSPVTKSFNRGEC
Chain of human FcRn (human) (P55899 24-297 limits assumed, form in doubt): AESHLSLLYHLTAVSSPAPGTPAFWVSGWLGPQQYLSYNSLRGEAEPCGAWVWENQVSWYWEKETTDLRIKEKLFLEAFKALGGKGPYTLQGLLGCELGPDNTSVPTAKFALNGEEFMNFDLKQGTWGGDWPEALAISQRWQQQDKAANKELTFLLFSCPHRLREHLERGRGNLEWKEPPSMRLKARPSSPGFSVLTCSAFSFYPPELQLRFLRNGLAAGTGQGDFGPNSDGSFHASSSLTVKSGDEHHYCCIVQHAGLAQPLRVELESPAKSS
Chain of cynomolgus FcRn (cynomolgus) (Q8SPV9 24-297 limits assumed, form in doubt): as the sequence (P55899 24-297 limits assumed, form in doubt) above, with N39D, E44Q, G99S, S189G, S190N, L217M, S269T counted along it

Substance	pH at Elution [1] [pH]	Kd [2] [nM]	Kd (human FcRn (human)) [nM]	Kd (mouse FcRn (mouse)) [nM]	also measured
CCL1 (human) (from UniProt P22362 24-96) (ligand)					EC80, β-arrestin signaling (DiscoverX assay) (human CCR8 (human) [3]): 0.02 µg/mL
L263G8 (antibody)					FACS HuT78 [MFI] (human CCR8 (human) [4]): 40 MFI; IC50, Ca flux assay (human CCR8 (human) [3]): 1.26 nM; IC50, inhibition of CCL1 induced β-arrestin signaling (human CCR8 (human) [3]): 13.8 nM; EC50 (human CCR8 (human) [5]): 0.31 nM; EC50 [6]: 132 nM
SA214G2 (antibody)					FACS mBW5147.3 [MFI] (murine CCR8 (mouse)): 48 MFI

Continued, in another order:

pH at Elution [1] [pH]	Kd [2] [nM]	Kd (human FcRn (human)) [nM]	Kd (mouse FcRn (mouse)) [nM]	Substance	also measured
7.85	160	230	560	Briakinumab (antibody)	
7.22	260	200	71	Ustekinumab (antibody)	
